Reference: US5258292A, “Enzymic process for the synthesis of ammonium adipate” (Rhone-Poulenc Chimie, priority 1990, dated 1993)

Experiments:
enantioselective amidase = biological target: T1, enantioselective amidase (Rhodococcus erythropolis, UniProt P22984); experiment: Substrate preference of the enantioselective amidase; type: biochemical, Brevibacterium R 312; settings: compared with the 2-arylpropionamide derivatives, especially 2-phenylpropionamide and 2-(3-benzoylphenyl)propionamide
T1 sequence (P22984 2-521): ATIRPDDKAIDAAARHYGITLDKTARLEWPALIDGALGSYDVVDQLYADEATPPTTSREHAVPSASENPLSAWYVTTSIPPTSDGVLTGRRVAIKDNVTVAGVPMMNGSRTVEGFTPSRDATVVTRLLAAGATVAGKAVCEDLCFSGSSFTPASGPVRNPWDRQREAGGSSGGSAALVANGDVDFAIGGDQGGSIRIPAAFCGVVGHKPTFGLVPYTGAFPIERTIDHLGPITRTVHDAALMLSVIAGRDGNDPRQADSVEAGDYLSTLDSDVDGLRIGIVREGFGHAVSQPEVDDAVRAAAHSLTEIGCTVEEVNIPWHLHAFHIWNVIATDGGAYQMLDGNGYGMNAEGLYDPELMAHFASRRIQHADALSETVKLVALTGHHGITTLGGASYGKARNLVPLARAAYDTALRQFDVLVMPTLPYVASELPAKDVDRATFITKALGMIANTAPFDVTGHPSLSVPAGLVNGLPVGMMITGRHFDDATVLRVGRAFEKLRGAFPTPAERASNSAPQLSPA
Description: Furthermore, the selectivity of the amidase towards the R enantiomer of HPPAmide is representative of the selectivity towards the S enantiomer of the 2-arylpropionamide derivatives.

[1] = Enantioselective amidase activity with HPPAmide as substrate (HPLC); type: biochemical; settings: purified enzyme, purity of more than 80%; 1 U = 1 μmol of HPPAcid formed per hour
Procedure: b--one unit (U) is equivalent to 1 μmol of HPPAcid formed per hour under the conditions described below.
Consequently, the enantioselective enzymic activity was detected by using 2-(4-hydroxyphenoxy)propionamide (HPPAmide) as the substrate. The reaction is carried out at 25° C., with shaking, in a 50 mM sodium phosphate buffer, pH 7.0, in the presence of Brevibacterium R 312, and is stopped by the addition of a 55/40/5 (v/v) mixture of 0.05 M phosphoric acid, acetonitrile and 1 N HCl. The culture is then centrifuged and the supernatant is analyzed by reversed-phase HPLC (Hibar-Merck RP-18; 5 μm). Elution is effected with an 85/15 (v/v) solution of 0.005 M phosphoric acid and acetonitrile and the respective concentrations of HPPAmide and HPPAcid are measured by the position of the elution peaks and compared with a standard. The enantiomeric excess, defined as the ratio (R-S)/(R+S) x 100, in which R and S are the respective concentrations of the R and S enantiomers of the HPPAcid, is deduced either from polarimetric measurements (using the sodium absorption at 589 nm) or from HPLC analysis on a chiral column.

[2] = Assay of the enzymic activity: hydrolysis of 2-phenylpropionamide (HPLC); type: biochemical; settings: enzyme purified to homogeneity; 1 unit = 1 μmol of 2-phenylpropionamide hydrolyzed per h; 30° C., pH 7.5
Procedure: The fraction containing the activity is incubated for 30 min at 30° C. in 500 μl of 0.1 M Tris/HCl buffer, pH 7.5, containing 5 mM DTT and 18.1 mM 2-phenylpropionamide. After incubation, 2 ml of an acetonitrile/1 N HCl mixture (90/10) and then 2 ml of a 50 mM H3 PO4 /CH3 CN mixture (75/25) are added to the incubation mixture. After centrifugation at 5000 g for 10 min, an aliquot of the supernatant is injected into an HPLC apparatus for assay of the reaction products.
Column: Nucleosil 5-C18 25 cm
One activity unit is defined as the amount of enzyme required to hydrolyze 1 μmol of 2-phenylpropionamide per h.

CC(Oc1ccc(O)cc1)C(N)=O (racemic) [R,S-2-(4-Hydroxyphenoxy)propionamide]
substrate quality for the enantioselective amidase (enantioselective amidase): better substrate

B1: enantioselective amidase of Brevibacterium R 312: enzyme purified from Brevibacterium R 312, purity of more than 80%; sequence in FIG. 9 (protein)
chain: MATIRPDDKAIDAAARHYGITLDKTARLEWPALIDGALGSYDVVDQLYADEATPPTTSAEHAVPSASENPLSAWYVTTSIPPTSDGVLTGRRVAIKDNVTVAGVPMMNGSRTVEGFTPSRDATVVTRLLAAGATVAGKAVCEDLCFSGSSFTPASGPVRNPWDRQREAGGSSGGSAALVANGDVDFAIGGDQGGSIRIPAAFCGVVGHKPTFGLVPYTGAFPIERTIDHLGPITRTVHDAALMLSVIAGRDGNDPRQADSVEAGDYLSTLDSDVDGLRIGIVREGFGHAVSQPEVDDAVRAAAHSLTEIGCTVEEVNIPWHLHAFHIWNVIATDGGAYQMLDGNGYGMNAEGLYDPELMAHFASRRIQHADALSETVKLVALTGHHGITTLGGASYGKARNLVPLARAAYDTALRQFDVLVMPTLPYVASELPAKDVDRATFITKALGMIANTAPFDVTGHPSLSVPAGLVNGLPVGMMITGRHFDDATVLRVGRAFEKLRGAFPTPAERASNSAPQLSPA
specific activity [1]: 815 U/mg

B2: enantioselective amidase of a Rhodococcus: enzyme purified to homogeneity from a Rhodococcus; sequence in FIG. 14 (protein)
chain: GLHELTLAQVAAKIENKELSPVELLDVILARVAEIEPKISAFVTITADSARKAARLAADEIAGGHYRGPLHGVPIGLKDLFEVAGVPNTASSRVRADYIPSSDGAAVEKLTAGGAVMIGKTHTHEFAYGAITPTTRNPWDPTRTPGGSSGGTAAALAAGLIFAGMGTDTGGSIRIPAAVCGTVGLKPTYGRVSRRGVTSLSWSLDHAGPLARTVEDAAIMLNQIAGYDRADPATVDVPVPDYAAALTGDVRGLRIGVPTNFYTDNVHPEVAAAADAAVAQLAHLGAVVREVKIPMAEVIVPTEWSLLVPEASAYHQQMLRERADHYTDETRTFLEAGELVPATDYIKALRVRTLIQAAFRELFQDIDVLIAPTVSSPALPLDDLEVTWPDGTSEGGTITYVRLSAPGNVTGLPALSVPSGFTEQGLPTGIQIIGRPFDEETVLNVGHAYEGCTDWPRLAPL
specific activity [2]: 988 U/mg of protein
